Data published in FireProtDB (doi:10.1021/bi980431i).

Settings: Homo sapiens; pH 2.7; Thermal; DSC; glycine 0.05 M; reversible: yes; whole UniProt chain shown

B1: Lysozyme C wild type, P61626 (protein)
chain: MKALIVLGLVLLSVTVQGKVFERCELARTLKRLGMDGYRGISLANWMCLAKWESGYNTRATNYNAGDRSTDYGIFQINSRYWCNDGKTPGAVNACHLSCSALLQDNIADAVACAKRVVRDPQGIRAWVAWRNRCQNRDVRQYVQGCGV
Tm: 64.9 °C | heat capacity change of unfolding: 1.58 kcal/mol/K | unfolding enthalpy (calorimetric): 114 kcal/mol | unfolding enthalpy (van 't Hoff): 120 kcal/mol
